Here are results for 1 molecule from article PMC12221741, “WT EGFR and the oncogenic mutant EGFR (L858R) employ distinct mechanisms for export from the endoplasmic reticulum, a process critical for their activation” (The Journal of Biological Chemistry, 2025).

No end group written: not given here.

The experiment concerns the target T1, His-tagged SAR1A^(Δ2–17, H79G) (human, UniProt Q9NR31 1-198, Δ2–17 | H79G).
T1 construct: SAR1A, human, GTPase-defective H79G, N-terminal helix (residues 2-17) deleted; also called SAR1A^(Δ2–17, H79G)-His; His-tagged SAR1A(H79G) deleted of its N-terminal helix; source: purified, as described previously
In words: pull-down; peptide-binding assay: polyR peptide coupled through its C-terminal cysteine to thiopyridone-Sepharose 6B beads (5 nmol peptide); 2 μg purified His-tagged SAR1A preincubated with 500 μM GTPγS; HK buffer (100 mM KCl, 20 mM Hepes, pH 7.2), 1 h at 4 °C; immunoblot. To be noted: both partners purified. For orientation: Immunoblotting shows a protein as a band on a membrane.

T1 sequence (Q9NR31 other isoform, or with tags, fused parts or gaps Δ2–17 | H79G | Δ2–17 | H79G | H79G H79G): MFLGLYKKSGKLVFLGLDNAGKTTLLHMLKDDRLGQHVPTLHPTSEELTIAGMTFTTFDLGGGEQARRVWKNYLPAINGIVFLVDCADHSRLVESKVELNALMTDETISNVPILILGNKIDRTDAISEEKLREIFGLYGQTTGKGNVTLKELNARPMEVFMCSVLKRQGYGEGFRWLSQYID

B1: synthetic polyR peptide of EGFR (RRRHIVRKRTLRRC) (peptide)
peptide: RRRHIVRKRTLRRC(Sepharose 6B)
notes: EGFR, juxtamembrane region of the cytosolic domain, amino acid number 669-681; added C-terminal cysteine residue used for coupling to the beads; also called polyR peptides; source: synthetic peptide, bought: GenScript
As for B1, the binding result is “binds”.
